Source: article PMC9714913

Biological target: AMC009 SOSIP gp120-gp41 protomer (HIV-1 (clade B, donor H18877))
Experiment: cryo-EM structure; AMC009 SOSIPv5.2 trimer with 10-fold molar excess of ACS114 Fab for 12 hours at RT, then 6-fold molar excess of ACS122 Fab for 15 minutes; complex purified by SEC in TBS; ~4.0 Å

Substance: AMC009 SOSIP gp120-gp41 protomer (complex)
- stoichiometry N: 3
